{"source": "paper PMC9122904", "about": "“Insights into the client protein release mechanism of the ATP-independent chaperone Spy” (Nature Communications, 2022)", "experiment_in_all_cases": "BLI; Octet RED96; client biotinylated and loaded on streptavidin sensors; Spy or Spy variant in solution at 0.25, 0.5, 1, 1.5 and 2 μM; 40 mM HEPES, 150 mM NaCl, pH 7.5; Kd calculated as koff/kon", "conditions_in_all_cases": "both partners purified", "key": {"Spy D26K R50D": {"biological_target": "T1, Spy D26K R50D (UniProt P77754 24-161, D26K | R50D)", "T1 construct": "source: E. coli BL21 (DE3), purified (Ni-NTA, cation exchange, SEC); not shown: His6, N-terminal, cleaved; SUMO, N-terminal, cleaved", "T1 sequence (looked up)": "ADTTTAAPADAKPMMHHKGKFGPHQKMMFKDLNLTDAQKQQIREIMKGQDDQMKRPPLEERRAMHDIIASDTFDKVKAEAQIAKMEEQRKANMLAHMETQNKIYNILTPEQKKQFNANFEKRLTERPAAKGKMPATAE", "procedure,_shortened": "(§1)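 Client proteins were biotinylated with EZ-link NHS-biotin at a 1:1 molar ratio, loaded onto streptavidin sensors, and measured by biolayer interferometry on an Octet RED96. The loaded sensors were dipped into 40 mM HEPES, 150 mM NaCl, pH 7.5 holding the analyte protein at 0.25, 0.5, 1, 1.5 or 2 μM, then moved to buffer without it. Fitting the wavelength-shift association and dissociation curves in SigmaPlot 12.0 gave the observed association rate and koff, kon was taken from the observed rate plotted against analyte concentration, and Kd was calculated as koff/kon.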"}, "Spy_(R89D D26K)": {"biological_target": "T2, Spy_(R89D D26K) (UniProt P77754 24-161, D26K | R89D)", "T2 construct": "also called D26K R89D; source: E. coli BL21 (DE3), purified (Ni-NTA, cation exchange, SEC); not shown: His6, N-terminal, cleaved; SUMO, N-terminal, cleaved", "T2 sequence (looked up)": "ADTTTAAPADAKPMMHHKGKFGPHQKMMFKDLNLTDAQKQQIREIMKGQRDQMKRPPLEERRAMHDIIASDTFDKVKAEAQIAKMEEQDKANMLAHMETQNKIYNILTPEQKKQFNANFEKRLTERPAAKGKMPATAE", "procedure,_shortened": "as §1"}, "Spy_(D26K K54D R55D)": {"biological_target": "T3, Spy_(D26K K54D R55D) (UniProt P77754 24-161, D26K | K54D | R55D)", "T3 construct": "source: E. coli BL21 (DE3), purified (Ni-NTA, cation exchange, SEC); not shown: His6, N-terminal, cleaved; SUMO, N-terminal, cleaved", "T3 sequence (looked up)": "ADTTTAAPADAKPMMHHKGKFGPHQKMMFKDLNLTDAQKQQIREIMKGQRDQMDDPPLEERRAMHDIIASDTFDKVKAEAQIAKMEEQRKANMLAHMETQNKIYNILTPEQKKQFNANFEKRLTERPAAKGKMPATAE", "procedure,_shortened": "as §1"}}}
{"binder": "Im7 H40W L53A I54A (natural protein, biotin (EZ-link NHS-biotin, 1:1 molar ratio of biotin to protein), Im7 (colicin E7 immunity protein) with H40W L53A I54A; Spy was made with an N-terminal His6-SUMO tag that was cleaved; also called Im7AAW; partially folded client; source: purified by a similar procedure to Spy) MELKNSISDYTEAEFVQLLKEIEKENVAATDDVLDVLLEWFVKITEHPDGTDAAYYPSDNRDDSPEGIVKEIKEWRAANGKPGFKQG", "values": [{"measurement": "koff", "setting": "Spy D26K R50D", "value": 0.147, "unit": "s⁻¹"}, {"measurement": "koff", "setting": "Spy_(R89D D26K)", "value": 0.2, "unit": "s⁻¹"}, {"measurement": "koff", "setting": "Spy_(D26K K54D R55D)", "value": 0.425, "unit": "s⁻¹"}]}
